The text below walks through data of patent US20240182562A1.

Test [1] has as its target Human CLDN18.1 (human) (UniProt P56856). The experiment in a line: FACS, hybridoma culture supernatant on 293T-human CLDN18.1 cells (permeable membrane treatment). (In flow cytometry, cells or beads pass a laser one at a time.)
Test [2] shares this target. The experiment in a line: FACS, hybridoma culture supernatant on CHO-human CLDN18.1 cells (permeable membrane treatment).

Sequence of Human CLDN18.1 (human) (P56856 whole entry): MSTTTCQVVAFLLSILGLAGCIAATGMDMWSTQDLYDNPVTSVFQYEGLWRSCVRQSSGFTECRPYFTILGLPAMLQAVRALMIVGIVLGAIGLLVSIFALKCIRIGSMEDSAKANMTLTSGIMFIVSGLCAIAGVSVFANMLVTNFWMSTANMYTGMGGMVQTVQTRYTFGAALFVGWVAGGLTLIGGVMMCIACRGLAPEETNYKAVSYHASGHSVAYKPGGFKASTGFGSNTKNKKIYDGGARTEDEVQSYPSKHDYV

B1: 7E3 (hybridoma clone, murine CLDN18.2 antigen-binding protein) (antibody, V domains shown)
VH: EVQLQQSGPELVKPGASVKMSCKASGYTFTNYIIHWVKQKPGQGLEWIGYINPYTDGPKYNEKFKGRATLTSDKSSSTAYMEFSSLTSEDSAVYYCARLNRGNAMDYWGQGTSVTVSS
VL: DIVMTQSPSSLTVTVREKVTLSCKSSQSLLNSGNQKNYLTWYQQKPGQPPKLLIYWASTRESGVPDRFTGSGSGTDFTLTISSVQAEDLAVYYCQNVYIYPFTFGAGTKLELKR
As to B1, the Average fluorescence intensity with Human CLDN18.1 (human) [1] was found to be 3040; with Human CLDN18.1 (human) [2] it was 3380.

B2: 5E6 (hybridoma clone, murine CLDN18.2 antigen-binding protein) (antibody, V domains shown)
VH: EVQLQQSGPELVKPGASVKMSCKASGYTFTNYVMNWVKQKPGQGLEWIGYINPYNDGTKYNERFKGKATLTSDKSSSTAFMEVSSLTSEDSAVYYCARLYRGNAMDYWGQGTSVTVSS
VL: DIVMTQSPSSLTVTVREKVTLSCKSSQSLLNSGNQKNYLTWYQQKPGQPPKLLIYWASTRESGVPDRFTGSGSGTDFTLTISSVQAEDLAVYYCQNVYIYPFTFGAGTKLELKR
As for B2, the Average fluorescence intensity with Human CLDN18.1 (human) [1] worked out at 4330; with Human CLDN18.1 (human) [2] it was 5370.

B3: 17B10 (hybridoma clone, murine CLDN18.2 antigen-binding protein) (antibody, V domains shown)
VH: EVQLQESGPELVKPGASVKMSCKASGYTFTNYIIHWVKQKPGQGLEWIGYINPYTDGPKYNEKFKGRATLTSDKSSSTAYMEFSSLTSEDSAVYYCARLNRGNAMDYWGQGTSVTVSS
VL: DIVMTQSPSSLTVTAGEKVTMNCKSSQSLLNSGNQKNYLTWYQQKPGQPPKLLIYWASTRESGVPDRFTGSGSGTDFTLTISSVQAEDLAVYYCQNDYSFPFTFGSGTKLEIKR
Consider B3, for which the Average fluorescence intensity in the test with Human CLDN18.1 (human) [1] turned out to be 2400; with Human CLDN18.1 (human) [2], 1680.

B4: 14E12 (hybridoma clone, murine CLDN18.2 antigen-binding protein) (antibody, V domains shown)
VH: EVQLQESGPELVKPGASVKMSCKASGYTFTNYIIHWVKQKPGQGLEWIGYINPYTDGPKYNEKFKGRATLTSDKSSSTAYMEFSSLTSEDSAVYYCARLNRGNAMDYWGQGTSVTVSS
VL: DIVMTQSPSSLSVSAGEKVTMSCKSSQSLLNNGNQKNYLAWYQQKPGQPPKLLIYGASTRESGVPDRFTGSGSGTDFALTISSVQAEDLAVYYCQNDLYYPFTFGSGTKLDIKR
Take B4: the Average fluorescence intensity in the test with Human CLDN18.1 (human) [1] came to 2580; with Human CLDN18.1 (human) [2] it was 1860.
